Source: paper PMC4566977, “Identification and characterization of Arabidopsis AtNUDX9 as a GDP-d-mannose pyrophosphohydrolase: its involvement in root growth inhibition in response to ammonium” (Journal of Experimental Botany, 2015)

Substrate: Nc1nc2c(ncn2[C@@H]2O[C@H](COP(=O)(O)OP(=O)(O)O[C@H]3O[C@H](CO)[C@@H](O)[C@H](O)[C@@H]3O)[C@@H](O)[C@H]2O)c(=O)[nH]1
Test: purified protein
Assay type: biochemical, Arabidopsis thaliana
Conditions: 50 mM Tris-HCl pH 8.0, 5 mM MgCl2, 37 °C, 10 min, GDP-D-Man 50 μM to 2 mM, apparent Km

B1: AtNUDX9 (Arabidopsis thaliana) (protein)
chain: MAKLAEEMNPEGSRYQLLLSCPSGLSPSQVSVDFSKSHDRIPRQDPGLEDSISQVWEQRSQGNSSLFNGQKFRYGGYCLDDDDGSTNEVPHVCLRLGLTDYRTFVGTNLSSLWEKFLVTSEDDSVRCRHTSSPLGNGAVIETSDKKIIVLRRSNNVGEFPGHYVFPGGHPEPTAVGIDYHQLENNVQTGEVLNKKVTQEMFDSIICEVVEETGIPASSLSSPLFIGISRRELNVRPAMFFYLKCSHHSDDIQRLYSSAEDGFESTQLHTVSLDELKMMTSRMPGCHHGGFALYELMLQRLKNTKETSLIAT
notes: recombinant with hexahistidine tag (pCold II), expressed in E. coli BL21(DE3) pLysS, His Trap HP purified
Km: 376 ± 24 µM
Vmax: 1.61 µmol/min/mg
kcat: 0.93 ± 1.5 s⁻¹
kcat/Km: 2400 M⁻¹ s⁻¹
